Data published in the nanobody polyreactivity screen of Harvey et al. (2022).

Assay: yeast display, Sf9 membrane polyspecificity reagent, FACS + sequencing; frameworks hold sequencing errors
In short: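 A synthetic nanobody library was expressed on Saccharomyces cerevisiae BJ5465 by galactose induction for 36–48 hours. The library was stained for 1 hour at 4 °C with 10% biotinylated, detergent-solubilized Sf9 membrane reagent and enriched with streptavidin microbeads before FACS. Low and high (top ~1%) gates were set on anti-HA fluorescence for expression and streptavidin fluorescence for reagent binding, and each polyreactivity label reflects the gate of origin.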

| Sequence | polyreactivity (PSR sort gate) |
| --- | --- |
| QVQLVESGGGLVQAGGSLRLSCAASGSTFKQYTMGWYRQAPGKERELVAAISWSGTSTYYADSVKGRFTISRDNAKNTVYLLMNSLKAEDTAVYYCAAVSYVWQYYYWGQGTQVTVSS | high polyreactivity |
| QVQLVESGGGLVQAGGSLRLSCAASGIIFKDYAMGWYRQAPGKERELVAAISRGGSTYYADSVKGRFTISRDNAKNTVYLQMNSLKPEDTAVYYCAAAYTAPYYRFGYWGQGTQVTVSS | high polyreactivity |
| QVQLVETGGGLVQAGGSLRLSCAASGSIFTPYAIGWYRKAPGKDRELVAAITSRGGTTYYADSVKGRFTISRDNAKNTVYLQMNSLKPEDTAVYYCAAEYYHLYYYQFDYWGQGTQVTVSS | high polyreactivity |
| QVQLVESGGGLVQAGGSLRLSCAASGRTFGHYAMGLYRQAPGKERELVADITRRGGSTSYADSVKGRFTISRDNAKNTVYLQMNSLKPEDTAVYYCNKAADGSSHYDYWGQGTQVTVSS | low polyreactivity |
| QVQLVESGGGLVQAGGSLRLSCAASGNTFSSYAMGWYRQAPGKVRELVAAISRRGGSTYYADSVKRRFTISRDHAKTTVYLQMNSLKPEDTAVYYCAADGTGFRSLRYDYWGQGTQVTVSS | high polyreactivity |
| QGQLVESGGGLVQAGGSLRLSCAASGFIFFYYAMGWYRQAPRKERELVATISANGGNTYYADSVKGRFTISRDNAKNTVYLQMNSLKPEDTAVSYCARYTWYLRDWQWYYWGDEDYWGQGTQVTVSS | high polyreactivity |
| QVQLVESGGGLVQAGVSLRLSCAASGRTFRRYVMGWNRQAPGKERELVASITRGTGTDYADSVKGRFTISRDNRMNTVYLQMNSLKPEDTAVYYGNVKFGQPIYGEFDYWGQGTQVTVSS | low polyreactivity |
| QVQLVASGGGLVQAGGSLRLSCAASGRIFYAYAMGWYRQAPGKERELVAAITISASSTYYADSVKGRFTFSRDNAKNTVYLQMNSLKPEETAVFYCAAAYRRPWWYSYRYGYWGQGTQVTVSS | high polyreactivity |
| QVQLVESGGGLVQAGGSLRLSCAASGRTFVTYAMGWYRQAPGKEREFVASISSDSGNTYYADSVKGRFTISRDNAKNTLYFQMNSLKPEDTAVYYCARRKVRYWSYPAAHYYWGQGTQVTVSS | low polyreactivity |
| QVQLVESGGGLVQAGGSLSLSCAAYGRTSPIYAMGWYRQAPGKERELVASITRCTRTNYADSVKGRFTISRDNAKNTVYLQMNSLKPEDTAVYYCAAVSYSYSLNAYDYWGQGTQVTVSS | low polyreactivity |
| QVQLVESAGGLVQAGGSLRLSCAASGFIFVKYAMGWDRQAPGKERELVAAISSRGGITYYADSVKGRYTISRDNAENTVYLQMISLKPADTAVYYCNTVSRGYRGNYWGQGTQVTVSS | low polyreactivity |
| QVQLVESAGGLVQAGGSLSLSCAATGFIFYYNTMGWYRQAPGKERELVAAINSGGSTYYADSVKGRFTISRDNAKNTVYLQMNSLKPEDTAVYYCAKRYAVSSRYYYWGQGTQVTVSS | high polyreactivity |
| QVQLVESGGGLVQAGGSLRLSCAASGITFLNYAMGWYRQATGKERELVAANDTRGGRTNYADSVKGRFTISRDNAKNTVYLQMNSVKPEDTEVYYCYALGYYVHKMDYWGQGTQVTVSS | low polyreactivity |
| QVQLVESGGGLVQAGGSLRLRCAASGIFAFYAMGWYRQAPGKERELVAGIDDGGSTDYADSVKGRFTISRDNAKNTVYLQMNSLKPEDTAVYYCAATERLEVWSRPYVWVTLDYRGQGTQVTVSS | low polyreactivity |
| QVQLVESWGGLVQAGGSLRLSCAASGRILGDYAMGWYRQAPGKEREFVAAIDYNGGSTNYADSVKGRFTISRDNAKNTVFLQMNSLKPEDTAVYYCAAPGFPSRNGFGYWGQGNQVTVSS | low polyreactivity |
| QVQLVESGGGLVQAGGSLRLSCAASGSTFVWYAMGWYRQAPGKEREFVATISWSDGSTYYADSVKGRFTISRDNAKNTVYLQMNSLKPEDTAVYYCASDVDRFFTYKYDYWGQGTQVTVSS | low polyreactivity |
| QVQLVESGGGLVQAGGSLRLSCAASGFIYDYAMGWYRQAPGKQREFVARINWSGGSTYYADSVKGRFTISRDNAKNTVYLQMNSLKPEDTAVYYCATSGWAWRTSNPYEYWGQGTQVTVSS | low polyreactivity |
| QVQLVESGGGLVQAGGSLRLSCAASGITFYGYAMGWYRQAPGKERELVATISSGGGTNYADSVKGRFTISRDNAKNTVYLQMNSLKPEDTAVYYCATDLSTVDYNYWGQGTQVTVSS | low polyreactivity |
| QVQLVESGGGLVQAGGSLRLSCAASGRTFYTYAMGWYRQAPGNERELVATISSGGGRTYYADSVKGRFTISPDNAKKTVYLQRNSLNPEDTAVYYCAADKWENRYHAVSDTRPRDYWGQGTQVTVSS | low polyreactivity |
| QVQLVESGGGLVQAGGSLRLSCAASGSIFVLNAMGWYRQAPGKERELVAAITNVGSTYYADSVKGRFTISRDNAKNTVYLQMNSLKPEDTAVYYCVAKGHLYSGGYEYYYWGQGTQVTVSS | low polyreactivity |
| QVQLVESGGGLVQAGGSLRLSCAASGNTIKDYTMGWYRQAPGKERELVASINSGGSTNYADSVKGRFTISRDNPKNTVYLQMNSLKPEDTAVYYSAKRAWSDYNPIDYWGQGTQVTVSS | low polyreactivity |
| QVQLVESGGGLVQAGGSLRLSCAASGSTFGYYAMGWYRQAPGKERELVAGISSGGTTKYADSVKGRFTISRDNAKNTVYLQMNSLTPVDTAVYYCAARFRRTRVTYYYWGQGTQVTVSS | high polyreactivity |

| Sequence | polyreactivity (PSR sort gate) |
| --- | --- |
| QVQLVESGGGLVQAGGSLRLSCAASGSIFTFNAMGWYRQAPGKERELVATISRRTGSTYYADSVKGRFTISRDNAKNTVYLQMNSLKPEDTAVYYCAARRRVYWYNHYNYWGQGTQVTVSS | high polyreactivity |
| QVQLVESGGGLVQAGGSLRLSCAASGRTFGYYGLGWYRQAPGKERELVASINFSSGSTFYADSVKGRFTISRDNAKNTVYLQMNSLKPEDTAVYYCAARTDVGWYSRYGYWGQGTQVTVSS | low polyreactivity |
| QVQLVESGGGLVQAGGSLRLSCAASGITFNLYAMGWYRQAPGKEREFVAVITASGSSTYYADSVKGRFTISRDNAKNTVYLQMNSLKPEDTAVYYCAARWHIYYFSYVTSYAYGYWGQGTQVTVSS | high polyreactivity |
| QVQLVESGGGLVQAGGSLRLSCAASGRIFRYYAMGWYRQAPGKERELVAAITRGGSTNYADSVKGRFTISRDNAKNTVYLQMNSLIPEDTAVYYCNKYPYFVYGDYGYWGQGTQVTVSS | high polyreactivity |
| QVQLVESGGGIVQAGGSLRLSCASSGFTFNLYAMGWYRHAPGNERELVAAINWSGGTYYADSVKGRFTISRDNAKNNVYLQMKILKPEDTAVYYCNARYVYHSSFAGFDYWGQGTQVTVSS | low polyreactivity |
| QVQLVQSGGGLVQAGGSLRLSCAASGRIFRPNAMGWYRQAPGKERELVAAISSGGSTYYADSVKGRFTISRDNAKNTVYFQMYSLKPEDTAVDYCAADRSNRPYYRQGYDYWGQGTQVTVSS | high polyreactivity |
| QVQLVESGGGLVQAGGSLRLSCAASGSTLWYYAMGWYRQAPGKERELVADITSSGNTNYADSVKGRFTISRDNAKNTVYLQMISLKPEDTAVYYCAADVTKYHDGHEYDYWGQGTQVTVSS | low polyreactivity |
| QVQLLESGGALVQAAGSLRLSCAASGYTIGRYAIGWYRHAPGKDRELVAAITWSGGSTYYADSVKGRFTISRDNAKNTVYLQMNSLKPEDTAVYYCAKRYRYYSYGPYGMYYWGQGTQVSVSS | high polyreactivity |
| QVQLVESGGGLVQAGGSLRLSCAASGLIFVYNSMGWYRQAPGKERELVAGITSGGSTNYADSVKGRFTISRDNAKNTVYLQMNSLKPEDTAVYYCAAGYYDLYLWWGYDYWGQGTQVTVSS | high polyreactivity |
| QVQLVESGGGLVQAGGSLSLSCAASGRNFYANTMGWYRQAPGKERELVASISYSSGSTYADSVKGRFTISRDNAKNTVYLQMNSLKPEDTAVYYCAARTYWYPRRPIYDYWGQGTQVTVSS | high polyreactivity |
| QVQLVESGGGLVQAGGSLRLSCAASGFIFRTYAMGWYRQAPGKERELVAAISGTTGSTYYADSVKGRFTISRDNAKYTVYLQMNSLKPEDTAVYFCAADYYWYIRYDYWGQGTQVTVSS | low polyreactivity |
| QVQLVESGGGLVQAGGSLRLSCAASGLIIPFYAMGWYRQAPGKERELVAAISWSAGSTYYADSVKGRFTISRDNAKNTVYLQMNSLKPEDTADYYCATERNPADFYWGQGTQVTVSS | low polyreactivity |
| QVQLVESGGGLVQAGGSLRLSCASSGRTFYSYVMGWYRQAHGKERELVAGISKRGGRTYYADSVKGRFTISRDNAKNTVYLEMYSLKPEDTAVYFCADDFPHTYWTFDFDYWGQGTQVTVSS | high polyreactivity |
| QVQLVESGVGLVQAGGSLRLSCAASGNIFLKNAMGWYRQAPGKERELVAAMSKRGGSTYYADSVKGRFTISRDNAKNTVYLQMNSLKPEDTAVYYCAARFKTTGYDYWGQGTQVTVSS | high polyreactivity |
| QVQLVESGGVLVQAGGSLRLSCAASGRIIDLNAMGWYREAPGKQRDFVAGITDGGSTYYADSVKGRFTISRDNAKNTVYLQMNSLKPEDTAVDYCAADVYDYLSEFQAFVEEAGYYWGQGTQVTVSS | low polyreactivity |
| QVQLVESGGGLVQAGGSLRLSCDASGSIFYNNAMGWYRQAPGKERELVATIRRSGGSTYYADSVKGRFTISRDNAKNTVYLQMNSLKPEDTAVYYCAADYTPDLLSKVDYWGQGTQVTVSS | low polyreactivity |
| QVQLVESGGGLVQAGGSLRLSCAASGRTFGTYAMGWYRQAPGKERELVAAISRRGGTTYYADSVKGRFTISRDNAKNTVYLQMNSLKPEDTAVYYCARASWSITTVLSTMDYWGQGTQVTVSS | high polyreactivity |
| QVQLVESGGGLVQAGGSLRLSCAASGRTFVQYVMGWYRQAPGKERELVARISSGGSTFYADSVKGRFTISRDNAKNTVYLQMNSLKPEDTAVYYCAAQWTRYRRRPMDYWGQGTQVTVSS | high polyreactivity |
| QVQLVESGGGLVQAGGSLRLSCAASGGTFTHNAMGWYRQAPGKDWELVAAISRSGGSTSYADSVKGRFTISRYNAKNTVYLQMNSLKPEDTAVYYCADRISRQRSYSRDYWGQGNQVTVSS | high polyreactivity |
| QVQLVESGGGLVQAGGSLRLSCAASGLIFYKYAMGWYRQAPGKERELVAAITSGGSTNYADSVKGRFTISRDNAKNTVYLQMNSLKPEDTAVYYCNADYHPYLVVRWWYPPVDYWGQGNQVTVSS | low polyreactivity |
| QVQLVESGGGLVQAGGSLRLSCAASGIIFPYSAMGWYRQAPGKERELVAAITSIDASTYYADSVKRRFTISRDNAKNTVYLHMNSLKPEDTAVYYCNATVFNLVLEYNYWGQGTQVTVSS | low polyreactivity |
